For one substance, stoichiometry N results are on record in paper PMC13031426.

In the experiment the target is Complex III (cytochrome bc1 complex) dimer of the ΔQCR6 yeast supercomplex (Saccharomyces cerevisiae) (UniProt P07143). Nature of the experiment: cryo-EM structure.

One may read the stoichiometry N as the number of molecules, sites or subunits per partner or assembly. Regarding “Complex III (cytochrome bc1 complex) dimer of the ΔQCR6 yeast supercomplex (from UniProt P07143 62-309)”, the stoichiometry N came out at 2.
